Source: US20200362018A1 (YEDA RESEARCH AND DEVELOPMENT, published 2020)
Values belong to the binder of their own block, whether it stands above or below them.

Legend:
[1] = molecular target: α-synuclein (UniProt P37840 1-140); assay: native mass spectrometry of α-synuclein incubated with the CCR
Method: Nanoflow electrospray ionization MS and tandem MS experiments were conducted under non-denaturing conditions on a QToF Q-Star Elite instrument (MDS Sciex, Canada), modified for improved transmission of large non-covalent complexes, or an Q-Exactive Plus Orbitrap EMR (ThermoFisher Scientific). Before MS analysis, 20 μl of up to 100 mM sample was buffer exchanged into 0.5-1 M ammonium acetate pH 7.5, using Bio-Spin columns (Bio-Rad). Sample concentrations were determined by ultraviolet absorbance. Assays were performed in positive ion mode and conditions were optimized to enable the ionization and removal of adducts, without disrupting the non-covalent interactions of the proteins tested. In tandem MS experiments, the relevant m/z values were isolated and argon gas was admitted to the collision cell. […] The following experimental parameters were used on the QToF Q-Star Elite instrument: capillary voltage up to 1.1 kV, declustering potential up to 220 V, focusing potential up to 240 V, a second declustering potential of 15 V, collision energy of between 20 and 200 V and an MCP of 2,350 V. The following experimental conditions were used on the Q-Exactive Plus Orbitrap EMR: capillary voltage 1.7 kV, MS spectra were recorded at low resolution (5000), and the HCD cell voltage was set to 20-50 V, at trapping gas pressure setting of 3.9. […]

[2] = molecular target: T1, T. acidophilum (Archaea) 20S proteasome (T. acidophilum, UniProt P25156 1-233; P28061 9-211); assay: peptide array of overlapping T. acidophilum 20S proteasome peptides
T1 construct: Assembled in vitro as α7β7β7α7; also called archaeal 20S proteasome; 20S proteasome from T. acidophilum

[3] = molecular target: T1, T. acidophilum (Archaea) 20S proteasome; assay: native MS with MS/MS of the isolated 20S proteasome peak
Method: Nanoflow electrospray ionization MS and tandem MS experiments were conducted under non-denaturing conditions on a QToF Q-Star Elite instrument (MDS Sciex, Canada), modified for improved transmission of large non-covalent complexes, or an Q-Exactive Plus Orbitrap EMR (ThermoFisher Scientific). Before MS analysis, 20 μl of up to 100 mM sample was buffer exchanged into 0.5-1 M ammonium acetate pH 7.5, using Bio-Spin columns (Bio-Rad). Sample concentrations were determined by ultraviolet absorbance. Assays were performed in positive ion mode and conditions were optimized to enable the ionization and removal of adducts, without disrupting the non-covalent interactions of the proteins tested. In tandem MS experiments, the relevant m/z values were isolated and argon gas was admitted to the collision cell. […] The following experimental parameters were used on the QToF Q-Star Elite instrument: capillary voltage up to 1.1 kV, declustering potential up to 220 V, focusing potential up to 240 V, a second declustering potential of 15 V, collision energy of between 20 and 200 V and an MCP of 2,350 V. The following experimental conditions were used on the Q-Exactive Plus Orbitrap EMR: capillary voltage 1.7 kV, MS spectra were recorded at low resolution (5000), and the HCD cell voltage was set to 20-50 V, at trapping gas pressure setting of 3.9.

T1 sequence (P25156 whole entry, chain 1 of 2): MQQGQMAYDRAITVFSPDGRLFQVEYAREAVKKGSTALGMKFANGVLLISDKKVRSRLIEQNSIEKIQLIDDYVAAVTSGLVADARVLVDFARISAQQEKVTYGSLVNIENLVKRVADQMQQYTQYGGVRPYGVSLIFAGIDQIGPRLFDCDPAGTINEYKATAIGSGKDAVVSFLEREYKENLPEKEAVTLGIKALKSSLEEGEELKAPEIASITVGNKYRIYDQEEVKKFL
T1 sequence (P28061 9-211, chain 2 of 2): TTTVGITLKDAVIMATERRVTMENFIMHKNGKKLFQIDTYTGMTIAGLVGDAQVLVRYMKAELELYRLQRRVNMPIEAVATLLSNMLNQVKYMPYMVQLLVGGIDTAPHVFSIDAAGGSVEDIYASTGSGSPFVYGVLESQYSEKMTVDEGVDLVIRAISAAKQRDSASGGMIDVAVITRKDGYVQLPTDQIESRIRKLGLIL

binding result [1]: no binding
B1: human PGDH with a C-terminal 6His tag (enzyme)
chain: MHVNGKVALVTGAAQGIGRAFAEALLLKGAKVALVDWNLEAGVQCKAALDEQFEPQKTLFIQCDVADQQQLRDTFRKVVDHFGRLDILVNNAGVNNEKNWEKTLQINLVSVISGTYLGLDYMSKQNGGEGGIIINMSSLAGLMPVAQQPVYCASKHGIVGFTRSAALAANLMNSGVRLNAICPGFVNTAILESIEKEENMGQYIEYKDHIKDMIKYYGILDPPLIANGLITLIEDDALNGAIMKITTSKGIHFQDYDTTPFQAKTQ
notes: also called PGDH-His; not shown: C-terminal 6His tag

binding result [2]: binds
binding result [1]: no binding
B2: human CBR3 (recombinant, His tag removed) (enzyme, UniProt O75828 1-277, looked up)
chain: MSSCSRVALVTGANRGIGLAIARELCRQFSGDVVLTARDVARGQAAVQQLQAEGLSPRFHQLDIDDLQSIRALRDFLRKEYGGLNVLVNNAAVAFKSDDPMPFDIKAEMTLKTNFFATRNMCNELLPIMKPHGRVVNISSLQCLRAFENCSEDLQERFHSETLTEGDLVDLMKKFVEDTKNEVHEREGWPNSPYGVSKLGVTVLSRILARRLDEKRKADRILVNACCPGPVKTDMDGKDSIRTVEEGAETPVYLALLPPDATEPQGQLVHDKVVQNW

binding result [3]: binds
B3: human DJ-1 (other, UniProt Q99497 1-189, looked up)
chain: MASKRALVILAKGAEEMETVIPVDVMRRAGIKVTVAGLAGKDPVQCSRDVVICPDASLEDAKKEGPYDVVVLPGGNLGAQNLSESAAVKEILKEQENRKGLIAAICAGPTALLAHEIGFGSKVTTHPLAKDKMMNGGHYTYSENRVEKDGLILTSRGPGTSFEFALAIVEALNGKEVAAQVKAPLVLKD
notes: also called PARK7
